Among the data in US20030104422A1 are absorbance values, retold here.

Several values for one entry are separate records, joined by “and”; a condition that tells them apart may be missing. Identical values can stand only once.

In experiment [1] the target is human placental alkaline phosphatase (PLAP, Sigma) (human) (UniProt P05187). The experiment in a line: ELISA on coated hPLAP; mAb 64 ng/ml spiked in negative serum, diluted 1:4. On the technique in general: In an ELISA, binding on a coated surface is turned into a signal by an enzyme label.
UniProt P05187, sequence (P05187 23-506 limits assumed): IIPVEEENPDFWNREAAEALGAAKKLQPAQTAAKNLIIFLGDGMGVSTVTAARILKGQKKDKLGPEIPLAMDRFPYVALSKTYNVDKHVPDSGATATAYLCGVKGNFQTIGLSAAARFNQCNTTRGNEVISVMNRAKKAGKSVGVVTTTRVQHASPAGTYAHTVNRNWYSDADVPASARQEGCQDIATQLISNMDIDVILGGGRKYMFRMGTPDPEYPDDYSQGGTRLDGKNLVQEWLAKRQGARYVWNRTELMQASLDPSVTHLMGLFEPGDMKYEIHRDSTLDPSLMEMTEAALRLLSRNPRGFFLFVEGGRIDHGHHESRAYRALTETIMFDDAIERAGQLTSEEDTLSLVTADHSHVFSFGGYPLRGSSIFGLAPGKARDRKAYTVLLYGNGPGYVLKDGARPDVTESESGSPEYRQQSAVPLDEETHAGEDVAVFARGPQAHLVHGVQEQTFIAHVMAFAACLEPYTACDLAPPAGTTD
The target is the same in experiment [2]. In words: ELISA on coated hPLAP; mAb 64 ng/ml spiked in negative serum, undiluted.
Experiment [3] shares this target. The experiment in a line: ELISA on coated hPLAP; mAb 64 ng/ml spiked in negative serum, diluted 1:16.
For experiment [4] the target is unchanged. The experiment in a line: ELISA on coated hPLAP; mAb 64 ng/ml in PBS, diluted 1:4.
For experiment [5] the target is unchanged. In words: ELISA on coated hPLAP; mAb 64 ng/ml in PBS, diluted 1:16.
The target is the same in experiment [6]. The experiment in a line: ELISA on coated hPLAP; mAb 64 ng/ml in PBS, undiluted.
For experiment [7] the target is unchanged. In words: ELISA on coated hPLAP; mAb 64 ng/ml spiked in negative serum, diluted 1:32.
The target is the same in experiment [8]. The experiment in a line: ELISA on coated hPLAP; row labelled '0' (apparently no sample, background).
For experiment [9] the target is unchanged. In words: ELISA on coated hPLAP; mAb 64 ng/ml in PBS, diluted 1:2.
The target is the same in experiment [10]. The experiment in a line: ELISA on coated hPLAP; mAb 64 ng/ml spiked in negative serum, diluted 1:8.
The target is the same in experiment [11]. The experiment in a line: ELISA on coated hPLAP; mAb 64 ng/ml spiked in negative serum, diluted 1:2.
For experiment [12] the target is unchanged. The experiment in a line: ELISA on coated hPLAP; mAb 64 ng/ml in PBS, diluted 1:8.
For experiment [13] the target is unchanged. In words: ELISA on coated hPLAP; mAb 64 ng/ml in PBS, diluted 1:64.
The target is the same in experiment [14]. The experiment in a line: ELISA on coated hPLAP; mAb 64 ng/ml spiked in negative serum, diluted 1:64.
For experiment [15] the target is unchanged. In words: ELISA on coated hPLAP; mAb 64 ng/ml in PBS, diluted 1:32.

As to “mouse monoclonal antibody to PLAP (clone 8B6, Sigma Immunochemicals)”, the absorbance at 450 nm (absorbance at 450 nm) in experiment [1] is 0.341; in experiment [2], 0.546; in experiment [3], 0.123; in experiment [4], 0.424; in experiment [5], 0.169; in experiment [6] it was 0.486. Besides, the absorbance at 450 nm (absorbance at 450 nm) in experiment [7] is 0.071; in experiment [8], 0.007 and 0.009; in experiment [9], 0.487; in experiment [10], 0.209; in [11], 0.439; in experiment [12], 0.282. The figures for the absorbance at 450 nm (absorbance at 450 nm) in experiment [13], in experiment [14] and in experiment [15] were 0.047, 0.042 and 0.091, respectively.
On to “negative control serum (serum of mice injected with saline)”, for which the absorbance at 450 nm (absorbance at 450 nm) in experiment [8] came to 0.005.
